Measurements as given in patent US20140336126A1 (INSTITUT PASTEUR, published 2014).

B1: myosin phosphatase targeting subunit 1 (MYPT1) (other)
chain: MKMADAKQKRNEQLKRWIGSETDLEPPVVKRQKTKVKFDDGAVFLAACSSGDTDEVLKLLHRGADINYANVDGLTALHQACIDDNVDMVKFLVENGANINQPDNEGWIPLHAAASCGYLDIAEFLIGQGAHVGAVNSEGDTPLDIAEEEAMEELLQNEVNRQGVDIEAARKEEERIMLRDARQWLNSGHINDVRHAKSGGTALHVAAAKGYTEVLKLLIQAGYDVNIKDYDGWTPLHAAAHWGKEEACRILVDNLCDMEMVNKVGQTAFDVADEDILGYLEELQKKQNLLHSEKRDKKSPLIESTANMDNNQSQKTFKNKETLIIEPEKNASRIESLEQEKVDEEEEGKKDESSCSSEEDEEDDSESEAETDKTKPLASVTNANTSSTQAAPVAVTTPTVSSGQATPTSPIKKFPTTATKISPKEEERKDESPATWRLGLRKTGSYGALAEITASKEGQKEKDTAGVTRSASSPRLSSSLDNKEKEKDSKGTRLAYVAPTIPRRLASTSDIEEKENRDSSSLRTSSSYTRRKWEDDLKKNSSVNEGSTYHKSCSFGRRQDDLISSSVPSTTSTPTVTSAAGLQKSLLSSTSTTTKITTGSSSAGTQSSTSNRLWAEDSTEKEKDSVPTAVTIPVAPTVVNAAASTTTLTTTTAGTVSSTTEVRERRRSYLTPVRDEESESQRKARSRQARQSRRSTQGVTLTDLQEAEKTIGRSRSTRTREQENEEKEKEEKEKQDKEKQEEKKESETSREDEYKQKYSRTYDETYQRYRPVSTSSSTTPSSSLSTMSSSLYASSQLNRPNSLVGITSAYSRGITKENEREGEKREEEKEGEDKSQPKSIRERRRPREKRRSTGVSFWTQDSDENEQEQQSDTEEGSNKKETQTDSISRYETSSTSAGDRYDSLLGRSGSYSYLEERKPYSSRLEKDDSTDFKKLYEQILAENEKLKAQLHDTNMELTDLKLQLEKATQRQERFADRSLLEMEKRERRALERRISEMEEELKMLPDLKADNQRLKDENGALIRVISKLSK
notes: also called HA-MYPT1; HA-tagged-MYPT1

Experiments:
[1] = target: T1, Optineurin (Optn), wild type (human, UniProt Q96CV9 1-577); assay: TAP and co-immunoprecipitations, title of FIG. 4
T1 construct: Full-length wild-type human Optn; also called Optn WT; HA-Optn

[2] = target: B1; assay: anti-Flag immunoprecipitation of Flag-PP1β, transfected HEK-293T cells (FIG. 4B)
[3] = target: B1; assay: anti-MYPT1 immunoprecipitation, anti-HA Western blot, transfected HeLa cells (FIG. 4D)

Binder: B1
- binding result [1]: binds

B2: type 1 protein phosphatase catalytic subunit PP1β (enzyme, UniProt P62140 1-327, looked up)
chain: MADGELNVDSLITRLLEVRGCRPGKIVQMTEAEVRGLCIKSREIFLSQPILLELEAPLKICGDIHGQYTDLLRLFEYGGFPPEANYLFLGDYVDRGKQSLETICLLLAYKIKYPENFFLLRGNHECASINRIYGFYDECKRRFNIKLWKTFTDCFNCLPIAAIVDEKIFCCHGGLSPDLQSMEQIRRIMRPTDVPDTGLLCDLLWSDPDKDVQGWGENDRGVSFTFGADVVSKFLNRHDLDLICRAHQVVEDGYEFFAKRQLVTLFSAPNYCGEFDNAGGMMSVDETLMCSFQILKPSEKKAKYQYGGLNSGRPVTPPRTANPPKKR
notes: Endogenous protein or transfected Flag-tagged PP1β (ImaGenes), as said under assay; also called PP1cβ; Flag-tagged-PP1β
- binding result [2]: binds

B3: HA-Optn Δ131-297 (other)
chain: MSHQPLSCLTEKEDSPSESTGNGPPHLAHPNLDTFTPEELLQQMKELLTENHQLKEAMKLNNQAMKGRFEELSAWTEKQKEERQFFEIQSKEAKERLMALSHENEKLKEELGKLKGKSERSSEDPTDDSREVEALNLQVTSLFKELQEAHTKLSKAELMKKRLQEKCQALERKNSAIPSELNEKQELVYTNKKLELQVESMLSEIKMEQAKTEDEKSKLTVLQMTHNKLLQEHNNALKTIEELTRKESEKVDRAVLKELSEKLELAEKALASKQLQMDEMKQTIAKQEEDLETMTILRAQMEVYCSDFHAERAAREKIHEEKEQLALQLAVLLKENDAFEDGGRQSLMEMQSRHGARTSDSDQQAYLVQRGAEDRDWRQQRNIPIHSCPKCGEVLPDIDTLQIHVMDCII
- binding result [3]: no binding
